For one molecule, Kd results are on record in patent US20200087410A1 (GLYCOTOPE, published 2020).

The target in the assay is T1, CD40 (immobilized CD40, antigen ELISA / surface plasmon resonance) (human, UniProt P25942 21-193, limits assumed).
T1 construct: also called TNFRSF5; TNF receptor super family member 5
Put plainly: immobilized CD40; screen by antigen ELISA and surface plasmon resonance (method of the KD not named). Here is the method:
Following expression of the different constructs in NM-H9D8 and NM-H9D8-E6Q12 cells, the titer of the humanized antibody variants was determined and their concentration adjusted. Then, the humanized antibodies were screened in an antigen ELISA and via surface plasmon resonance.
(In general: In an ELISA, binding on a coated surface is turned into a signal by an enzyme label.)

T1 sequence (P25942 21-193 limits assumed): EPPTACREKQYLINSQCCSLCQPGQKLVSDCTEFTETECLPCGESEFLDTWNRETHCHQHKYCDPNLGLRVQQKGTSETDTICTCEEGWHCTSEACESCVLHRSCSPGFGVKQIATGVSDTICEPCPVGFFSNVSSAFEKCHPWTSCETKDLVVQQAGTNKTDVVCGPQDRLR

B1: humanized anti-CD40 antibody variant VH10/VL2 (as screened in Example 3) (antibody, V domains shown)
VH: EVQLVQSGAEVKKPGASVKISCKTSGYTFTEYIMHWVKQSPGKSLEWIGGIIPNNGGTSYNQKFKDRVTMTVDKSISTGYMELSRLRSDDTAVYYCTRREVYGRNYYALDYWGQGTLVTVSS
VL: DIQMTQSPSSLSASVGDRVTITCSASQGINNYLNWYQQKPGKAPKLLIYYTSSLHSGVPSRFSGSGSGTDYTFTISSLQPEDIATYYCQQYSNLPYTFGQGTKLEIKR
notes: Human gamma1 or gamma2 heavy constant region and human kappa constant region; also called hLob
Broadly, the Kd is the free concentration of one partner at which half of the binding sites on the other are occupied at equilibrium, for simple one-to-one binding. B1 registered a Kd of 25 nM. This lies in the double-digit nanomolar range.
